From patent US20260347399A1, “BRAIN PENETRATING PEPTIDES AND METHODS OF USE” (priority 2022, published 2026)
Ends that are not written are not given here.

Legend:
[1] = tested on: P3 stem cells; experiment: In vitro phage binding to cells; assay type: cell-based, human; conditions: 4 °C, 1 h, highest ratio
Description: To assess the binding of Cerepep phage, the cells were cultured in 24-well plates on polylysine coated glass coverslips until 80-90% confluency. The cells were incubated with Cerepep or control insertless peptide-phage at a final concentration of 5×10^7 pfu in 1 ml of DMEM+BSA (1%) at 4 °C for 1 h on a rocking platform. The wells were washed 4 times with 1 ml of DMEM+BSA (1%), the cells were lysed in 1 ml LB+NP40 and the amount of phage bound to the cells was determined by titering.
Binding of SRRVISRAKLAAAL (SEQ ID NO:9) phage to a panel of different cell lines was studied in vitro.

[2] = tested on: mouse brain; experiment: In vivo phage display with CX4CYX library
Description: In vivo phage display with CX4CYX library was performed in three selection rounds. Phage library was injected intravenously to Balb/c mice and allowed to circulate for one hour. After circulation, the animals were anesthetized and perfused intracardially with acid and detergent buffers. Brain and control organs were collected and homogenized in 1% NP40-LB. Bound phages were rescued by amplification in E. coli and their genomic DNA was sequenced by Ion Torrent next generation DNA sequencing system.
A novel phage library CX4CYX was constructed based on the alanine-leucine screen to find new brain homing peptides). This knowledge directed us to construct a novel phage library CX4CYX (X—any amino acid), where Cys1, Cys6 and Tyr7 remained in their intact positions, and the four amino acid variable-domain laid between the cysteines, and one amino acid variability after Tyr7. Three rounds of phage bio-panning was performed to allow enrichment of peptides in the brain. Again acid and detergent buffers were used for perfusion to remove non-specifically bound phages from the brain after systemic administration of phage library (round 1) and recovered brain phage pools (round 2 and 3). HTS reads from round 1 to round 3 indicated decent enrichment of in-frame peptides in the brain (Table 6).

[3] = tested on: WT-GBM, VEGFko, U87MG or NCH421k GBM; experiment: CVG peptide-phage homing in glioblastoma (four models); assay type: in vivo, mouse; conditions: peptide-phage i.v., 1 h
Description: (§1) To assess homing of CVG peptide in glioblastoma, CVGTNCY (SEQ ID NO:2) peptide-phage was injected iv into mice bearing either WT-GBM, VEGFko, U87MG or NCH421k GBM, and to mice without a tumor. At one hour time point mice were perfused, brains and control organs collected and titered. […] (FIGS. 17A-17B) Distribution of CVG peptide in GBM and brain parenchyma was also assessed. CVGTNCY (SEQ ID NO:2) peptide or its scrambled version (CVYTCNG; (SEQ ID NO: 68)) was injected iv into glioma bearing mice, after 1 hour circulation mice were perfused and tissues of interest snap-frozen in liquid nitrogen.

[4] = tested on: GBM and normal brain parenchyma; experiment: Synthetic peptide homing in glioma-bearing mice (IHC); assay type: in vivo, mouse; conditions: synthetic peptide i.v., 1 h
Description: CVGTNCY (SEQ ID NO:2) peptide-phage or control phage were injected iv into mice, after one hour circulation animals were perfused with 20 ml PBS, organs were collected, weighed, and dropped to 1% NP40-LB solution. Organs were homogenized and titer of each tissue was determined. FAM-labeled peptides (2 mM of peptide in PBS) were injected intravenously and 3 hours later the animals were perfused with 20 mL of PBS. The organs were excised, snap-frozen in the vapor of liquid nitrogen, and stored at −80 °C. For confocal microscopy, the tissues were sectioned at 15 μm and stained with antibodies and DAPI.
Cryosections (15 μm) on Superfrost Plus slides were fixed in cold methanol, washed in PBS, treated with 3% hydrogen peroxide, and blocked in PBS containing 0.05% Tween-20, 5% BSA, and 5% goat serum (GE Healthcare, UK) for 1 h. The sections were immunostained with rabbit anti-fluorescein (cat #A889, Thermo Fisher Scientific, MA, USA) antibody overnight at +4 °C. […] Sections were imaged with Leica Aperio VERSA microscope slide scanner. Imaged were processed with Aperio Image Scope (v12.4.3.5008).
The synthetic CVGTNCY (SEQ ID NO:2) peptide or scrambled CVGTNCY (SEQ ID NO:2) homing in WT-GBM and VEGFko GBM-bearing mice was analyzed after i.v. injection and perfusion of the animals. Cryosections of glioma-bearing brains were stained with anti-FAM antibody and tyramide amplification kit to enhance the signal of the peptide.
as §1

[5] = tested on: VEGFko GBM; experiment: Peptide-phage homing in glioma-bearing mice; assay type: in vivo, mouse; conditions: peptide-phage i.v., 1 h
Excerpt: (§2) Animal experimentation procedures were approved by the Estonian Ministry of Agriculture, Committee of Animal Experimentation, Project #48 and #159. Balb/c mice and Athymic nude mice (HD) were housed in a pathogen-free environment at the Animal Facility of the Institute of Biomedicine and Translational Medicine, University of Tartu (Tartu, Estonia). For induction of orthotopic GBM xenografts in nude mice, 7×10^5 (WT-GBM, VEGFko GBM) cells were implanted intracranially in the right striatum of the brain (ccordinates: 2 mm laterally and 2 mm posteriorly from bregma and at 2.5 mm depth). Intracranial tumors developed for 6-7 days (WT-GBM) and 12-14 days (VEGFko GBM) before performing experiments.
(§3) Homing of CVGTNCY (SEQ ID NO:2) was analyzed in angiogenic WT-GBM and infiltrative VEGFko GBM models. First, CVGTNCY (SEQ ID NO:2) peptide-phage homing was evaluated based on titer after systemic injection into the glioma-bearing mice and perfusion with PBS.

[6] = tested on: WT-GBM; experiment: Peptide-phage homing in glioma-bearing mice; assay type: in vivo, mouse; conditions: peptide-phage i.v., 1 h
Excerpt: as §2, §3

[7] = WT-GBM and VEGFko GBM-bearing mice

Substance | binding of peptide-phage, fold over insertless phage [1] | R1 reads ([2]; round 1) [reads] | R3 reads ([2]; round 3) [reads] | reads in the brain compared to CAGALCY ([2]; round 3, vs CAGALCY) | R3 > R1 (ratio of sequencing reads between round 3 and round 1) ([2]; round 3 / round 1) | PFU per mg of GBM vs normal brain [3] | ratio of CVG over G7 in GBM vs normal brain [3] | cell type targeted in normal brain [4] | detection in brain parenchyma [4, 7] | detection/targeting in GBM [4, 7] | detection in brain parenchyma ([4]; WT-GBM and VEGFko GBM-bearing mice, listed as CVG) | accumulation in VEGFko GBM compared to normal brain parenchyma [5] [times] | ratio of CVGTNCY over G7, normal brain vs GBM ([6]; WT-GBM and VEGFko GBM) | accumulation in WT-GBM compared to normal brain parenchyma [6] [times]
SRRVISRAKLAAAL [Cerepep, SRRVISRAKLAAAL] | at least 50 fold | – | – | – | – | – | – | – | – | – | – | – | – | –
CVGTNCY | – | 12 | 37038 | about 40 times | 3087 | greater than normal brain tissue | lower than in normal brain | binding to the cortical neurons in the normal brain | detected in the brain parenchyma | activated microglia in GBM | homed to brain parenchyma and GBM | 2 | higher in the normal brain parenchyma than in GBMs | 6
